Results taken from PMC7914648 (Pharmaceuticals, 2021).

What was measured:
[1] = Stability in blood (hydrolysis, PAPTPL release); assay type: in vitro ADME; conditions: fresh heparinized C57BL mouse blood, 37 °C, 5 µM from 5 mM DMSO stock, HPLC-UV, % PAPTPL released relative to amount spiked, mean, n = 5 (An2-PAPTP) and 4 (TAT-PAPTP)
Protocol: C57BL mice were anesthetized and blood was withdrawn from the jugular vein and heparinized. Blood samples (1 mL) were spiked with compound (5 µM; dilution from a 5 mM stock solution in DMSO) and incubated at 37 °C for 4 h (the maximum period allowed by blood stability). Aliquots were taken after 10 min, 30 min, 1 h, 2 h, and 4 h before HPLC-UV analysis.
Each aliquot was treated as described above (Section 4.7.1). Compound stability in blood was expressed as % of PAPTPL released relative to the amount of An2-PAPTP and TAT-PAPTP spiked in the sample at time 0.

[2] = assay type: in vivo, mouse; conditions: An2-PAPTP 5 µmoles/kg bw i.v. in mouse plasma
Protocol: The brains of these mice were analyzed to evaluate the presence of the construct in the tissue (see Section 4.7). Each brain was homogenized and incubated with an equal volume of phosphate-buffered saline (PBS, pH 12.5) for 24 h; 10 volumes of ethyl acetate were then added. After vigorous mixing, the organic phase was collected, concentrated and analyzed via HPLC. This procedure allows hydrolysis of the carbamate bond, leading to the extraction of PAPTPL, which is considered proportional to the amount of peptide-PAPTP conjugate (or its fragments) present in the brain.
The protocol set up for PAPTPL recovery turned out to be inefficient for the quantification of TAT-PAPTP. An alternative protocol was thus developed. Tissue obtained from untreated mice was weighed and homogenized with PBS pH 7.4 (1 vol) with a potter. The pre-established amount of analyte was added into tissue homogenates and, after thorough vortexing, 1 vol of PBS pH 12.5 was added and the sample was incubated with intermittent vortexing at 60 °C for 24 h. This step is required to allow the hydrolysis of the carbamate bond connecting the peptide and PAPTPL. 10 vol of ethyl acetate were added and, after vortexing and sonication for 2 min, the sample was centrifuged at 12,000× g, 7 min, Room Temperature. The organic phase was collected and concentrated with Hetovac VR-1. ACN was added to the concentrated sample to allow the resuspension of PAPTPL and analyzed via HPLC. Quantification was as described for PAPTPL.
(§1) Brain and liver obtained from untreated mice were weighed and homogenized with PBS pH 7.4 (1 vol) with a potter. The pre-established amount of analyte was added into tissue homogenates and, after thorough vortexing, 5 vol of acetone were added and the sample was sonicated for 2 min. Subsequently, 5 vol of ACN containing 0.1% trifluoracetic acid (TFA) were added and the sample was sonicated for 5 min. The sample was then centrifuged at 12,000× g for 7 min at 4 °C and the supernatant was collected, concentrated with a Hetovac VR-1, and analyzed via HPLC-UV.
(§2) To quantify the amount of An2-PAPTP stuck in the tissue, the pellet remaining after the procedure described above was incubated with intermittent Vortexing at 60 °C for 3 h with PBS pH 12.5/ACN 1:1 and then centrifuged at 12,000× g for 7 min. HPLC-UV analysis of the supernatant, measuring PAPTPL hydrolyzed from the tissue, thus indirectly reflects the amount of An2-PAPTPL in the pellet (Scheme 3). Quantification was as described for PAPTPL.
(§3) A stock solution of the peptide-PAPTP conjugates was prepared in DMSO. TAT-PAPTP was administered at 8 and 5 μmol/kg bw and An2-PAPTP only at 5 μmol/kg bw. The calculated quantity of drugs was diluted from the stock solution in saline or mouse plasma to a final volume of 200 μL.

[3] = Tissue distribution of An2-PAPTP and metabolites (liver, spleen, kidneys, heart) after i.v. injection; assay type: in vivo, mouse
Text: The total amount of An2-PAPTP and its metabolites, summarized in Table 3, is comprehensive of all the species having the characteristic psoralenic UV spectrum obtained by the overall extraction procedure (i.e., from organic solvent extraction and basic hydrolysis of the remaining pellet), and represents and underestimation of the real concentration in the tissue (see Section 4.7.3). This is because no recovery yield correction was applied, since it was impossible to identify most of the species extracted, and because PAPTPL extracted after high-pH hydrolysis of the pellet could come either from An2-PAPTP or from metabolites. For quantification in HPLC analysis, all the psoralenic species were assumed to have the same molar extinction coefficient as PAPTPL, an assumption justified by the near-identity observed for all the available psoralen-containing molecules.
The liver, spleen, kidneys, heart obtained from untreated mice were weighed and homogenized with PBS pH 7.4 (1 vol) with a potter. The pre-established amount of PAPTPL was added into tissue homogenates or blood and, after thorough vortexing, 5 vol of acetone were added and the sample was sonicated for 2 min. Subsequently, 5 vol of ACN containing 0.1% TFA were added and the sample was sonicated for 5 min. The sample was then centrifuged at 12,000× g for 7 min at 4 °C and the supernatant was collected, concentrated with a Hetovac VR-1, and analyzed via HPLC-UV.
as §1, §2, §3

mouse Red Blood Cells = test: Haemolysis assay; assay type: cell-based; conditions: 5 × 10^7 mouse erythrocytes in 1 mL PBS pH 7.4, 2, 1 or 0.5 µM, 15 min, absorbance 540 nm, n = 3
Protocol: Haemolysis studies were conducted as described in [72]. Briefly, freshly withdrawn blood samples were centrifuged at 1000× g for 10 min to obtain erythrocytes; the pellet was then washed thrice with sterile PBS (pH 7.4). Erythrocytes (5 × 10^7 cells in 1 mL of PBS for each experimental condition) were incubated with 2, 1 or 0.5 µM An2-PAPTP or TAT-PAPTP for 15 min. The samples were then centrifuged and absorbance (Abs) of the supernatant was measured at 540 nm. Triton X-100 1% and PBS were used as positive and negative control, respectively.
The percentage of haemolysis was calculated with the following equation:% haemolysis = [(Abssample − AbsPBS)/AbsTriton X-100 − AbsPBS)] × 100

[4] = An2-PAPTP 5 µmoles/kg bw i.v., all psoralenic species, 312 nm, no recovery correction, mean ± SEM, n = 5
[5] = An2-PAPTP i.v., found in one animal out of four
[6] = An2-PAPTP i.v., mean ± SEM, n = 4
[7] = An2-PAPTP i.v., mean ± SEM, n = 5
[8] = An2-PAPTP i.v., mean ± SEM, n = 6

CC[C@H](C)[C@H](NC(=O)Oc1ccc(CCCOc2ccc([P+](CCCc3ccc(OCCCCOc4c5ccoc5cc5oc(=O)ccc45)cc3)(c3ccccc3)c3ccccc3)cc2)cc1)C(=O)N[C@H](C(=O)N[C@@H](Cc1ccccc1)C(=O)N[C@@H](Cc1ccccc1)C(=O)N[C@@H](Cc1ccc(O)cc1)C(=O)NCC(=O)NCC(=O)N[C@@H](CO)C(=O)N[C@@H](CCCNC(=N)N)C(=O)NCC(=O)N[C@@H](CCCCN)C(=O)N[C@@H](CCCNC(=N)N)C(=O)N[C@@H](CC(N)=O)C(=O)N[C@@H](CC(N)=O)C(=O)N[C@@H](Cc1ccccc1)C(=O)N[C@@H](CCCCN)C(=O)N[C@H](C(=O)N[C@@H](CCC(=O)O)C(=O)N[C@@H](CCC(=O)O)C(=O)N[C@@H](Cc1ccc(O)cc1)C(=O)O)[C@@H](C)O)[C@@H](C)O [An2-PAPTP]
hydrolyzed in mouse blood over 4 h (PAPTPL released) [1]: about 60%
Brain Psoralenic Species (nmol/g Tissue), 15 min ([2]; 15 min, PAPTPL after carbamate hydrolysis, mean ± SEM, n = 5): 0.3 ± 0.1 nmol/g Tissue
Brain Psoralenic Species (nmol/g Tissue), 30 min ([2]; 30 min, PAPTPL after carbamate hydrolysis, mean ± SEM, n = 4): 0.4 ± 0.6 nmol/g Tissue
presence in brain one hour post-injection ([2]; one hour): only a trace could be detected
Heart Psoralenic Species (nmol/g Tissue), 15 min [3, 4]: 0.2 ± 0.1 nmol/g Tissue
Kidney Psoralenic Species (nmol/g Tissue), 15 min [3, 4]: 5 ± 4 nmol/g Tissue
Spleen Psoralenic Species (nmol/g Tissue), 15 min [3, 4]: 28 ± 9 nmol/g Tissue
Liver Psoralenic Species (nmol/g Tissue), 15 min ([3]; An2-PAPTP 5 µmoles/kg bw i.v., all species with psoralenic UV spectrum, 312 nm, no recovery correction, mean ± SEM, n = 5): 23 ± 3 nmol/g Tissue
degradation of the peptide chain by liver peptidases ([3]; An2-PAPTP 5 µmoles/kg bw i.v., liver, in vivo): degraded the peptide chain nearly completely in little more than one hour
Heart Psoralenic Species (% of Administered Dose), 30 min, single animal [3, 5]: 0.07 % of Administered Dose
Heart Psoralenic Species (nmol/g Tissue), 30 min, single animal [3, 5]: 0.36 nmol/g Tissue
Kidney Psoralenic Species (% of Administered Dose), 30 min [3, 6]: 0.32 ± 0.07 % of Administered Dose
Spleen Psoralenic Species (% of Administered Dose), 30 min [3, 6]: 0.27 ± 0.09 % of Administered Dose
Heart Psoralenic Species (% of Administered Dose), 15 min [3, 7]: 0.07 ± 0.01 % of Administered Dose
Kidney Psoralenic Species (% of Administered Dose), 15 min [3, 7]: 1.2 ± 0.8 % of Administered Dose
Spleen Psoralenic Species (% of Administered Dose), 15 min [3, 7]: 1.2 ± 0.3 % of Administered Dose
Kidney Psoralenic Species (% of Administered Dose), 60 min [3, 8]: 0.31 ± 0.03 % of Administered Dose
Spleen Psoralenic Species (% of Administered Dose), 60 min [3, 8]: 0.8 ± 0.2 % of Administered Dose
Heart Psoralenic Species (% of Administered Dose), 60 min ([3]; An2-PAPTP i.v., n = 6): 0 % of Administered Dose
Heart Psoralenic Species (nmol/g Tissue), 60 min ([3]; An2-PAPTP i.v., n = 6): 0 nmol/g Tissue
Liver Psoralenic Species (nmol/g Tissue), 30 min ([3]; as above, 30 min, n = 4): 17 ± 2 nmol/g Tissue
Liver Psoralenic Species (nmol/g Tissue), 60 min ([3]; as above, 60 min, n = 6): 11 ± 3 nmol/g Tissue
Kidney Psoralenic Species (nmol/g Tissue), 30 min ([3]; as above, n = 4): 1.3 ± 0.2 nmol/g Tissue
Spleen Psoralenic Species (nmol/g Tissue), 30 min ([3]; as above, n = 4): 4.3 ± 1.4 nmol/g Tissue
Kidney Psoralenic Species (nmol/g Tissue), 60 min ([3]; as above, n = 6): 1.2 ± 0.1 nmol/g Tissue
Spleen Psoralenic Species (nmol/g Tissue), 60 min ([3]; as above, n = 6): 11 ± 3 nmol/g Tissue
haemolysis (release of haemoglobin) (mouse Red Blood Cells): did not induce a measurable release of haemoglobin
